Key:
[1] = biological target: T1, E. coli FimH, wild type, on E. coli (BW25113) cells (E. coli, UniProt P08191 22-300); assay: flow cytometry and immunofluorescence of rHMGB1 on E. coli BW25113
T1 construct: whole, on cells; also called WT FimH; ∆FimHWT

[2] = biological target: T2, ToH1 peptide of BmpC (Borrelia burgdorferi), SYERPDI (Borrelia burgdorferi); assay: ELISA on ToH1 peptides (FIG.10B)
T2 construct: also called BmpC ToH1 peptide

[3] = biological target: T3, ToH1 peptide of LptF (E. coli), SPEKPTV (E. coli); assay: ELISA on ToH1 peptides (FIG.10B)
T3 construct: also called LptF ToH1 peptide

[4] = biological target: T4, ToH1 peptide of Asa1 (Enterococcus faecalis), […] (Enterococcus faecalis); assay: ELISA on ToH1 peptides (FIG.10B)
[5] = biological target: T5, ToH1 peptide of HyR3 (Candida albicans), TFEPPVV (Candida albicans); assay: ELISA on ToH1 peptides (FIG.10B)
T5 construct: also called HyR3 ToH1 peptide

[6] = biological target: T6, ToH1 peptide of OmpA (Bacteroidales), SFELPTI (Bacteroidales); assay: ELISA on ToH1 peptides (FIG.10B)
T6 construct: also called OmpA ToH1 peptide

[7] = biological target: T2, ToH1 peptide of BmpC (Borrelia …); assay: ELISA on ToH1 peptides (FIG.10A)
[8] = biological target: T3, ToH1 peptide of LptF (E. coli), SPEKPTV; assay: ELISA on ToH1 peptides (FIG.10A)
[9] = biological target: T4, ToH1 peptide of Asa1 (Enterococcus …); assay: ELISA on ToH1 peptides (FIG.10A)
[10] = biological target: T5, ToH1 peptide of HyR3 (Candida …); assay: ELISA on ToH1 peptides (FIG.10A)
[11] = biological target: T6, ToH1 peptide of OmpA (Bacteroidales), …; assay: ELISA on ToH1 peptides (FIG.10A)

Measured: binding result

T1 sequence (P08191 22-300): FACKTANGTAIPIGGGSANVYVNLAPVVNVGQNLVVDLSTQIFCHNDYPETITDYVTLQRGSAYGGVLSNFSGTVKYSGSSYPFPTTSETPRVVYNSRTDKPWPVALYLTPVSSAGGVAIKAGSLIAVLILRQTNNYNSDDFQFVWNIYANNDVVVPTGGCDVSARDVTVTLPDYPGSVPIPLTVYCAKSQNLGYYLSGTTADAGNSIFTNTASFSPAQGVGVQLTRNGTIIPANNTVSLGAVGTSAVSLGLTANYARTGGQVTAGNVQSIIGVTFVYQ

B1: Recombinant human HMGB1 (rHMGB1) (ligand)
chain: MGKGDPKKPRGKMSSYAFFVQTCREEHKKKHPDASVNFSEFSKKCSERWKTMSAKEKGKFEDMAKADKARYEREMKTYIPPKGETKKKFKDPNAPKRPPSAFFLFCSEYRPKIKGEHPGLSIGDVAKKLGEMWNNTAADDKQPYEKKAAKLKEKYEKDIAAYRAKGKPDAAKKGVVKAEKSKKKKEEEEDEEDEEDEEEEEDEEDEDEEEDDDDE
notes: also called High mobility group box 1
binds: [1]

B2: F5 scFv (scFv)
scFv: EVQLVQSGPEVKKPGASVKVSCKASGFIFSNYGIGWVRQAPGQGLEWLGWISGYNGQTNYAQTVQGRVTMTADTSTTTAYMDLRNLRSDDTAIYYCARQSIPYYMDVWGKGTMVTVSSGGGGSGGGGSGGGGSGGGGASDIVMTQSPLSSPVTLGQPASISCRSSQSLVHSNGNTYLSWLHQRPGQPPRLLIYRISNRLSGVPDRFSGSGAGTDFTLKISRVEAEDVGVYYCMQAKQFPVTFGQGTRLEIKGSHHHHHH
notes: also called antibody F5
binds: [2] | [3] | [4] | [5] | [6]

B3: G6 scFv (scFv)
scFv: QVQLQQSGPGLVKPSQTLSLTCAISGDSVSSNSAAWNWIRQSPSRGLEWLGRTYYRSKWYNDYAVSVKSRITINPDTSKNQFSLQLNSVTPEDTAVYYCARRSTWGTFDYWGQGTLVTVSSGGGGSGGGGSGGGGSGGGGASDIVMTQTPDSLAVSLGERATINCKSSQSVLYSSNNKNYLAWYQQKPGQPPKLLIYWASTRESGVPDRFSGSGSGTDFTLTISSLQAEDVAVYYCQQYYALPLTFGGGTKLEIKGSHHHHHH
notes: also called antibody G6
binds: [7] | [8] | [9] | [10] | [11]
